Test results from doi:10.1101/2021.12.16.473085 (2021).

What was measured:
Assay in all cases: SPR
hGH K41R = molecular target: hGH K41R
hGH R178F = molecular target: hGH R178F
hGH Q22H = molecular target: hGH Q22H
hGH S51D = molecular target: hGH S51D
hGH Q46R = molecular target: hGH Q46R
hGH R178Y = molecular target: hGH R178Y
hGH E65Y = molecular target: hGH E65Y

Kd (hGH K41R): 20 nM
koff (hGH K41R): 0.001 s⁻¹
Kd (hGH R178F): 30 nM
koff (hGH R178F): 0.008 s⁻¹
Kd (hGH Q22H): 8 nM
koff (hGH Q22H): 0.0004 s⁻¹
Kd (hGH S51D): 0.6 nM
koff (hGH S51D): 0.0007 s⁻¹
Kd (hGH Q46R): 40 nM
koff (hGH Q46R): 0.0006 s⁻¹
Kd (hGH R178Y): 20 nM
koff (hGH R178Y): 0.006 s⁻¹
Kd (hGH E65Y): 0.4 nM
koff (hGH E65Y): 0.0003 s⁻¹
B1: human Growth Hormone Receptor (hGHR) (receptor)
chain: FSGSEATAAILSRAPWSLQSVNPGLKTNSSKEPKFTKCRSPERETFSCHWTDEVHHGTKNLGPIQLFYTRRNTQEWTQEWKECPDYVSAGENSCYFNSSFTSIWIPYCIKLTSNGGTVDEKCFSVDEIVQPDPPIALNWTLLNVSLTGIHADIQVRWEAPRNADIQKGWMVLEYELQYKEVNETKWKMMDPILTTSVPVYSLKVDKEYEVRVRSKQRNSGNYGEFSEVLYVTLPQMSQFTCEEDFYFPWLLIIIFGIFGLTVMLFVFLFSKQQRIKMLILPPVPVPKIKGIDPDLLKEGKLEEVNTILAIHDSYKPEFHSDDSWVEFIELDIDEPDEKTEESDTDRLLSSDHEKSHSNLGVKDGDSGRTSCCEPDILETDFNANDIHEGTSEVAQPQRLKGEADLLCLDQKNQNNSPYHDACPATQQPSVIQAEKNKPQPLPTEGAESTHQAAHIQLSNPSSLSNIDFYAQVSDITPAGSVVLSPGQKNKAGMSQCDMHPEMVSLCQENFLMDNAYFCEADAKKCIPVAPHIKVESHIQPSLNQEDIYITTESLTTAAGRPGTGEHVPGSEMPVPDYTSIHIVQSPQGLILNATALPLPDKEFLSSCGYVSTDQLNKIMP
